# Source: patent US20240270828A1 (UAB RESEARCH FOUNDATION, published 2024)
# Where two headings read alike, the source gives them in different places.
# T1: 229E Spike protein (HCoV-229E, UniProt P15423 16-1115)
# T1 sequence: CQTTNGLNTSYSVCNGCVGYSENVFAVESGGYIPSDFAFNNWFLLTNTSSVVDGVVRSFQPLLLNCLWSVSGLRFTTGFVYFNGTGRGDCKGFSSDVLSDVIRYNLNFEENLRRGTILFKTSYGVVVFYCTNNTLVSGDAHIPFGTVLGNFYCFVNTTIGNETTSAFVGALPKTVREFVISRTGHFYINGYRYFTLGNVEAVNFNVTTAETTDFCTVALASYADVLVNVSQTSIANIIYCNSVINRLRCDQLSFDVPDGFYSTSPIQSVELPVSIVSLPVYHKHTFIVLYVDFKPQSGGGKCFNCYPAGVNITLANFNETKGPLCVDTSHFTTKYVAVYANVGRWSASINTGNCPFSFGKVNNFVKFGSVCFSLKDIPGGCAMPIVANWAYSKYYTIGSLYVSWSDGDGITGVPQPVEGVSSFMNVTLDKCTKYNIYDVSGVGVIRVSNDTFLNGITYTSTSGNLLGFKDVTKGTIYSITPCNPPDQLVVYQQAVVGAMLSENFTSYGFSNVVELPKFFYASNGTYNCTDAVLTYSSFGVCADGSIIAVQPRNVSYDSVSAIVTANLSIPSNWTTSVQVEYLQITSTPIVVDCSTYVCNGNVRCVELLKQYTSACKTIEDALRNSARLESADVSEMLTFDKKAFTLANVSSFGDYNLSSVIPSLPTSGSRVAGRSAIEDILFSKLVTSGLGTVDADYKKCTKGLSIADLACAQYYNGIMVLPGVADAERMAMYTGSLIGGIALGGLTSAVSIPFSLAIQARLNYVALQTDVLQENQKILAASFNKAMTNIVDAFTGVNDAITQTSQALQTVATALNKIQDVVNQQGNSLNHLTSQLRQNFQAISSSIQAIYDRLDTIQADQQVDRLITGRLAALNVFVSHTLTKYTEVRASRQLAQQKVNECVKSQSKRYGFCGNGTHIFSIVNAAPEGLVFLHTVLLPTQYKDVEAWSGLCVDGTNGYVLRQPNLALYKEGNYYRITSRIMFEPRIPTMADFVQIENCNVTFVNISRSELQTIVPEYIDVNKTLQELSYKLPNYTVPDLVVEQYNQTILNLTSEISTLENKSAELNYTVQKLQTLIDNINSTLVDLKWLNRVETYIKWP
# T2: NL63 Spike protein (HCoV-NL63, UniProt Q6Q1S2 19-1296)
# T2 sequence: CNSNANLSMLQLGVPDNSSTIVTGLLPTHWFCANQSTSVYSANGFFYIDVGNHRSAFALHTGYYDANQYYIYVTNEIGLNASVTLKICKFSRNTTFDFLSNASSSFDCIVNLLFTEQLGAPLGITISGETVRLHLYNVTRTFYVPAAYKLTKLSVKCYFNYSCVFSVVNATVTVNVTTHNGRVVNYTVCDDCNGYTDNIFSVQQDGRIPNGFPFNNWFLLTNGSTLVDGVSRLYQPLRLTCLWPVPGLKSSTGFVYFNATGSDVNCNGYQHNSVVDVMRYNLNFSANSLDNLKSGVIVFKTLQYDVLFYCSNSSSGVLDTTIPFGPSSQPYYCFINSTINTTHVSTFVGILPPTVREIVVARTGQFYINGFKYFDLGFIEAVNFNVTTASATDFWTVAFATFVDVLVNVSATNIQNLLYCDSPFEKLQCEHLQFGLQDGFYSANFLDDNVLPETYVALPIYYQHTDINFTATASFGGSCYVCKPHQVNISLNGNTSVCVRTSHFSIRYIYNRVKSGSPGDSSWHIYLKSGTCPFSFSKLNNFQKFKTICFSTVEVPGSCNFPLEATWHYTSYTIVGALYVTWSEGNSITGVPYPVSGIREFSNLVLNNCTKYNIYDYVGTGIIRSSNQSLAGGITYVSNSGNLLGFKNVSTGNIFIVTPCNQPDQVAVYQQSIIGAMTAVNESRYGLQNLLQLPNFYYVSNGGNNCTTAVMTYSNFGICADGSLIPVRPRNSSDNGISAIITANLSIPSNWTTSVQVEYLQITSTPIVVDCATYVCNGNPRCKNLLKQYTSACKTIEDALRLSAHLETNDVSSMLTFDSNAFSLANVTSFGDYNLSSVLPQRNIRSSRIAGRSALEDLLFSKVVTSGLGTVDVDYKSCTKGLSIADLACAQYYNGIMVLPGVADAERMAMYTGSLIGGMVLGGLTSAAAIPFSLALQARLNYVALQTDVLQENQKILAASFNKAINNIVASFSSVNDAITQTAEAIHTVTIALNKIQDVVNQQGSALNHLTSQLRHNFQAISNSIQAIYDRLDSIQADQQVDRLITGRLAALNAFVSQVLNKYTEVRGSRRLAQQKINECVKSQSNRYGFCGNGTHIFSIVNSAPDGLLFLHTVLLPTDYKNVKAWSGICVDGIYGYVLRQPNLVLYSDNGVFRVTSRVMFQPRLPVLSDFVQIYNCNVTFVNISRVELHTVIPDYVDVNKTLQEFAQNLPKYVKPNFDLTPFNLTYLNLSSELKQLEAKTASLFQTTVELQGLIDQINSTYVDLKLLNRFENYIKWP
# B1: CV3-25 (antibody, V domains shown)
# VH: QVQLVESGAEVKKPGESLKISCKGSGYTFTRYWIGWVRQMPGKGLEWMGIIYPGDSDTRYSPSFQGHVTISADKSISTAYLQWNSLKASDTAMYYCARLPQYCSNGVCQRWFDPWGQGTLVTVSS
# VL: EIVLTQSPSSVSASVGDRVTITCRASQGISSWLAWYQQKPGKAPKLLIYAASSLQSGVPSRFSGSGSGTDFTLTISSLQPEDFATYYCQQGNSFPYTFGQGTNLEIK
# B2: 1249A8 (antibody, V domains shown)
# VH: QVQLVQSGAEVKKPGASMKVSCKASGFTFTDYYMHWVRQAPRQGLEWMGLINPSGSGTAYAQNFQGRVTLARDTSTSTLYMEMGSLTSDDTAVYYCARMDSSGSYDHWGQGTLVTVSS
# VL: ETTLTQSPGTLSLSPGDRATLSCRASQTIRISYLAWYQQKPGQAPRLLVYGPSIRATGIPDRFSARGSGTDFTLTISRLEPEDFAVYYCQHYGSSPPRYTFGQGTKLEIK
# B3: CC40.8 (antibody, V domains shown)
# VH: EVQLLESGGGLVQPGGSLRLSCAASGFTFSSYVMTWARQAPGKGLEWVSAISGTGYTYYADSVKGRFTVSRDNSKNTLFLQMSSLRAEDTAVYYCAITMAPVVWGQGTTVTVSS
# VL: SYELTQPPSVSVSPGQTARITCSGDALPKRYAYWYQQKSGQAPILVIYEDKKRPSGIPERLSGSKSGTVATLTISGAQVEDEADYYCYSTDSSGNHAVFGGGTQLTVL
# B4: S2P6 (antibody, V domains shown)
# VH: EVQLVQSGAEVKKPGASVKVSCKASGYTFTSQYMHWVRQAPGQGLEWIGIINPSGVHTSYAQKFQGRVTLTRDTSTSTLYMELSSLRSEDTAVYYCARGSPKGAFDYWGQGTLVTVSS
# VL: not shown
# Key:
# [1] = target: SARS-CoV-2 Spike protein (SARS-CoV-2, UniProt P0DTC2 16-1211); test: SPR, hmAb captured, SARS-CoV-2 Spike injected, 1:1 fit
# [2] = target: T3, SARS-CoV-2 Spike protein (SARS-CoV-2, UniProt P0DTC2 16-1211); test: SPR/BLI, method not told apart
# [3] = target: T4, SARS-CoV-2 Omicron Spike protein (SARS-CoV-2 Omicron, UniProt P0DTC2 16-1213); test: BLI, mAb on anti-human Fc biosensors
# [4] = target: T4, SARS-CoV-2 Omicron Spike protein
# [5] = target: T3, SARS-CoV-2 Spike protein
# [6] = target: T1, 229E Spike protein; test: ELISA titration of 1249A8 on coated Spike proteins, mean Abs at 450 nm
# [7] = target: T2, NL63 Spike protein; test: as above
# [8] = target: T3, SARS-CoV-2 Spike protein; test: BLI, mAb on anti-human Fc biosensor, SARS-CoV-2 Spike in solution
binder,measurement,setting,value
B1,Kd,[1],2.5 nM
B2,Kd,[2],1.8 nM
same,Kd,[3],0.52 nM
same,Kd,[4],0.517 nM
same,Kd,[5],1.22 nM
same,binding result,[6],no binding (tested: about 1000 ng/ml)
same,binding result,[7],no binding (tested: about 1000 ng/ml)
same,Kd,[8],2.85 nM
B3,Kd,[1],1.6 nM
B4,Kd,[1],9.7 nM
